# Results taken from paper PMC314469, “Protein Interaction Networks by Proteome Peptide Scanning” (PLoS Biology, 2004).
# Target: Sho1 SH3 (SHO1_YEAST), P40073
# Assay: SPOT array
# Chain of Sho1 SH3 (SHO1_YEAST), P40073 (P40073 295-366): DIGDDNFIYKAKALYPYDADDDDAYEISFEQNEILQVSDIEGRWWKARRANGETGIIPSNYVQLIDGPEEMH
row,Binder,"normalised SPOT signal, Boehringer light units (BLU); mean over the file's lines of this peptide"
1,AKQPKEPKKRTTRR [7-20 11-kDa nonhistone chromosomal protein],103
2,DLPPKFPEKPVHLV [186-199 Hypothetical ORF],65.8
3,DSIPLEPKKAKHLM [82-95 50-kDa subunit of ORC],133
4,DELPSPPLRMVHID [237-250 Hypothetical ORF],224
5,EHKPVSPDKIGTFT [81-94 transcription factor],0
6,"APAPLDPFKTGGNN [849-862 "" contains 3 SH3 domains, interacts with Bee1p""]",681
7,DSLPKLPFRSWGQP [490-503 Amino acid permease],333
8,ATRPSSPMRHKSIS [585-598 protein kinase domain],401
9,DESPIDPSKAPKVP [350-363 Hypothetical ORF],96.8
10,DSIPVDPEKVVAIV [216-229 acetyl CoA hydrolase],91
11,EILPQAPAKKVFES [379-392 Hypothetical ORF],132
12,DSLPFAPLRKVYEL [139-152 Hypothetical ORF],96.8
13,"YSLPMHPGRWWVHT [222-235 "" 2,3-oxidosqualene-lanosterol cyclase""]",453
14,DQAPSLPPKPNTQL [158-171 homologous to mouse and human Tsg101 tumor susceptibility genes],176
15,DERPFRPKRTSRSA [149-162 Hypothetical ORF],183
16,ATVPSAPYRKQIIS [11-24 nuclear pore protein],122
17,ESHPELPNKDVKLD [158-171 putative methylenetetrahydrofolate reductase (mthfr)],53.7
18,SILPAFPSKSSNEQ,73.6

row,Binder,"normalised SPOT signal, Boehringer light units (BLU); mean over the file's lines of this peptide"
1,ATTPAIPTKSDEAE,169
2,YSNPQTPLRSLAGL [1404-1417 Type 1 membrane protein with EF hand motif],217
3,DVYPHEPAKNGEGS [311-324 3-phosphoglycerate dehydrogenase],132
4,APLPPQPRKHDKTP [587-600 Protein Kinase C],152
5,DYLPQHPHRTSSLP [109-122 scaffold protein for MAP kinase cascade],87.8
6,DRPPDVPRKIIVGR [301-314 ubiquitin carboxyl-terminal hydrolase],477
7,SREPEVPQRLLTLI [250-263 Hypothetical ORF],105
8,AVDPENPKKLASKF [384-397 Hypothetical ORF],83.2
9,DHKPENPIRTFKDL [90-103 uridine permease],168
10,DGRPHSPLRARSAT [51-64 Involved in protecting the cell against bleomycin damage],37.1
11,AIEPGVPSRYSDET [91-104 Hypothetical ORF],125
12,AGSPIRPYKQRYLL [526-539 heat shock transcription factor],86.2
13,SGFPLLPSKRGVTA [165-178 Hypothetical ORF],644
14,ALVPFAPFKLLKDR [340-353 Triacetylfusarinine C transporter],129
15,"DLQPLEPKKAAAST [805-818 "" contains 3 SH3 domains, interacts with Bee1p""]",220
16,ASLPVGPRKNGMNV [26-39 Hypothetical ORF],215
17,EAAPQLPSRSSAAP [505-518 Actin binding protein],86.7

# The remaining lines, values ahead:
row,"normalised SPOT signal, Boehringer light units (BLU); mean over the file's lines of this peptide",Binder
1,620,AFVPTNPWRSSMSL [315-328 invertase (sucrose hydrolyzing enzyme)]
2,830,ALKPKTPSKAPRKR [65-78 origin recognition complex subunit 2]
3,81.6,AAQPPLPSRNVASG [446-459 Actin binding protein]
4,321,AMPPTLPHRDWKDY [84-97 component of peroxisomal import machinery]
5,128,"YPSPAQPPKSPLLN [448-461 "" involved in bud formation, has SH3 domain""]"
6,224,DYLPPVPEKNAGKQ [274-287 Mitochondrial ribosomal protein MRPL35 (YmL35)]
7,509,YTLPLLPGKGGFRI [228-241 Hypothetical ORF]
8,207,DDTPSIPSKISSKS [1313-1326 component of the mitotic spindle]
9,137,AAWPLDPARERWTR [269-282 Hypothetical ORF]
10,118,ARDPILPYRLVKDR [345-358 Product of gene unknown]
11,163,EIAPSLPSRNSIPA [471-484 Actin binding protein]
12,75.3,DYQPLSPPRELDPD [249-262 Hypothetical ORF]
13,144,DPLPYSPLKLYDQK [382-395 Transcription factor (fork head domain)]
14,281,EILPVKPTKKSSKK [808-821 involved in bud site selection]
15,178,SQRPGSPGRYKLVR [174-187 gamma subunit of translational initiation factor eIF-2]
16,196,YQYPQTPSKVDISI [243-256 Product of gene unknown]
17,91,DFTPVEPSKMREYI [629-642 MCM3 protein homolog (S. cerevisiae)]
18,183,EIAPLIPKKPALRK [597-610 component of vacuolar membrane protein complex]
19,130,EANPDNPKKLDLKA [783-796 Hypothetical ORF]
20,165,YMQPIIPGKTESFE [151-164 similar to ubiquitin activating enzyme (E1)]
21,258,APTPPAPSRSEKLH [727-740 Hypothetical ORF]
22,160,AKSPLLPFKLLSDR [330-343 Hypothetical ORF]
23,202,DSGPQRPKRTRAKG
24,115,DVLPAGPVRSLEGA [122-135 Hypothetical ORF]
